assay: soluble fraction after stress (log2 fold change); higher = more stays soluble; pooled small domains, quantitative proteomics; conditions: stress: 50 degC
Method in brief: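 Custom libraries of small protein domains were pooled and measured in a high-throughput format, with quantitative proteomics as the read-out. Each library was stressed at 50°C. The value is the log2 fold change in the amount of each protein that stays soluble after stress, used as a measure of aggregation propensity; higher values mean more of the protein stays soluble.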

Sequence	soluble fraction (log2)
HMHTTIIVASRDIAAGSVLTSHDLSSVAWVGGAVPKGSYTAADLAVGKTAFTAFQQGEPILESRLAS	-0.00332
HMSLPDREVVLETSSDSYYHFKTDHFQRQITYSAVRNAPVRLVTISAERAFEVISLNRRGERPEHLE	-3.53
HMTDLEDDEKKVYRLIVESGEGIDFDTLSERSGFSATELPSILLFLMMKEMIDELPGKIYRYSE	0.0814
HMDPVQLEVIKKLNLLNAQKPKDIYALRDVLSEMFPQSDIRLLLKELLDKGYIYWNGHEVIYSHEMF	-0.217
HMLISKNLLGFTIKNTSGVTFGTLKDIMWLPSNDVYVIDNNGKEYLIPVISEIVKSINYDKGSITIFP	-0.352
HMGPEVQLAYSEFLAKVKVGEVNDVMVKGNEIHGHFSDGRTFSTYSPNDPDLVEKLNKNKVMIKAAPP	0.0475
HMSQTELIIVEEEMDGERLDAFLAEQVEQLSRSAVKNLINEGQVLVNGAKQKASYHVREGDEISIEIPEPQ	0.0254
HMGKGGVAYLLESEFGIELPKDMQREFGPIANDIVDSLGREVSGAELKSMFWKEYIERETPFLLLLVTGQL	0.457
HMPNQIKQIAVNTASVSDIATIPGISFDFAKEIWEFRILRQKIGSLSELQKIEGMTASKYALIELYLHI	-3.37
HMDVAAQITYAMRTMGVAPIPRNYELFYEAYIGSNPALTKELAALGSKATQEELDELGQQYF	-1.93
HMSEQYEQIQLALKTLTQDEQDIVRLVVVEGASLRTAGKNLGVSAMTIQRRLKRALARLRDLLAS	-0.948
HMANLNFDMSQIVASRYQEKAAELGVTAPSLARTDYNTQEQATYEFVAREIIADYYDDRVAPFNDLIPE	-0.223
HMKPDIETQLKKYRYKVSVSKKIKPYMVFSDKTLSELLTKSPTNLKELEDINGFGPVKVQEYGAAILEILK	-0.777
HMRTFFEIEQLKAYVGEEIQVKFEADSHKQTVLGKLISISEDFIEIENSKKGNLKISLDNYLTSKLIY	-1.6
HMSGTGSYVALLRDPQGNVGKVVVKGSKGEQVLSQPQQAARLDGATPSYEVTGRQIAEDFGRALAV	0.127
HMDASSTGFLGKHVQIVGLVSQPHLNGRRGVASRFDSNRRRYLVRLDEIDGHAEVVAFRPDNLVLSNLL	-0.573
HMPRDYYAVLEVSVSSTPVQIRQAYQRLARRYSPDVNFLDRDTEALFEEIVEAYRVLSNPTARTLYDRG	-4.48
HMSGFPTDAQIVREIRNILPTLENPTPRMVRKALENTFEVDMGESKTKKYINNIIITEYEKWSSVQSIRE	-0.534
HMEYSAAYDRELESIFNLTERGKWEEAEAEVGLLLQQYPEDKTLLRISEWVATQKTILREQAIEDRIRS	0.186
HMAQVVMPNVVGKTEKDATATLEGKNLKVNVEYNLDATSDDGIVKEQSIKSGENIDEGTEITLKVNKV	-1.07
HMNSVLPQEVKSSLNDFFTKYAPGSIAQKLINHASFTGGKVVVTGVELTQTQADDLKKAFKDKFF	0.000827
HMFLTDHEVSKVARKRAHAEYLSSLSWRQRTFGDHGERSKNFEAWYKEHSHLYETEKLYKELYKN	-0.567
HMLEQSYYEKTDEIIELHGAKASSLIPVMQDVQAEYRYLPGELLSYIADKLGIPLAKAYSVATFYENFS	-0.358
HMVNINEVEVSRDLAHAKVFVTFVGDRTDEINTQALKVLNAAQGFLRSRIASNNHMRTTPRIHF	-0.663
HMDSIKDQIYQILKEDILTGELRSGEQLVEQTIAARFNTSRSPVREAIKQLTGDGLVINITNKGTFVK	0.168

Sequence	soluble fraction (log2)
HMGEPVEIEEPITVRSLSEALGLKSSAIISHLMRQGVFATINQNLDKETAELIAAEYGIELRIK	0.00995
HMGTKDVNAAPSAVGRTYDEAIEILNGYKAGYLEEYSDTVPKGTVISQSVQDGQVVIVVSLGPKPS	0.0391
HMATINGIEKYLSSGLIPGIGPHTAKKLVEKFGLDTLDIMQYNPDRLTEVEGIGDKKAAKISEAFQEQK	0.0735
HMKPVTVINFVGMTEEKAMTEAEKLGLVVGASSSEYSDEPAGTVIRQSISVSTEAKTGDNIYFTVSKGPE	0.163
HMNTAIPIAIDQLRIGMYIQLGLNWMSHPFPVSSFRIASESQIEILRGLGLAEVRYVPAKSDPVP	-2.88
HMNTLLYAPKVSPNPFTPNADGINDVVNISYKLLRVISAVPISVEVFDLSGRLIKTLYSGVDPLGEY	0.158
HMGKDTLKLKKNAIPYDENGKKLTNLGYSYIKKTTVLNYYGTKIINGSTYYFLGDGVYIKAANVGTTSH	-2.23
HMGIQQNHMTLHARSVASSANVPAEHFDTLVEKLIESGDIKVWKAREILMNLSRQHEEILDES	0.0119
HMSLEDNEVIQRMKVILDRFDEETAVDRTTAFKAVLDHIGKMDAESKTLEHMAEMLEALLDKVLEE	-0.237
HMAPVEEWAKASVMEDPTLVTETMARIFAQQGQIGKARKAYRHLALTYPAKSTYFAAQLKKLNQR	-0.259
HMEGFKSVYFLTTPSGAEISDRSVGDIISKTPSLVSAQEGTEFEFNLKGYQPSFYMINKRSPDRVFVELIP	-0.535
HMQERKYTVSFNTNGGSTINDQKITSGNVIISPGAPKRSGYTFVGWYYHGQPFDLNTKINQDYVLVAKWIK	-1.16
HMHAPKIIVLTINPDKIRDVIGPGGKMIKSIVAATGVKMDVEDDGKIHISSSDQKAADEAIRMINEITAEA	0.0184
HMYNMEELAGHTEKVYNSLPEELKLVIKLREIENMSYDEISLKTGMPIGTVRSRLHRAREILVDSLKDY	-0.367
HMSSQADEEALFKLLAANPYSDEQLEEIRIAIGSGIAYKDIIRIADIGNTAERMKQLRLEFTKDTAN	-0.0428
HMWSLLVILQLREGGQRFSQLQRAIPDISQRMLTQTLRKLERDGLVSRKVTPSTPPRVDYAITELGH	-1.04
HMDPLGGFTKGDVDMDGRVAVNDAVMVLKNAIKLMELDTQQLMLADADNDGKITVNDAVMILKKAIKLID	-0.111
HMAEEGEQAASNTAAQAEDRAAELAAAGEKGKQITKTLVAEFGIPKNEAYRLALDAVAAVKAER	-0.105
HMTAFAGLTPRERDLLELIAQGRDNAQIAATLGVSDKTVRNHITHIFAKLEVETRAQAIVLARNAGFGRA	-0.356
HMTSKTLSADGGENTRLDKFLSNHLPEISRTKIQKMINDGLVYVNQNYAKASLVLDGTELISYTIPD	0.0679
HMTEPKRIVDHWQPSDDVYDILRMSHIDLDFARSLLPEFIVYWKDSSQTHTSWNSKFLQHAKYHWAKRHQL	-2.08
HMTFPTEAKLTGDKVFVRSGPSTQSQRLTNLAINSVVTVLAREMGDMQYPWYKVRYSDGEGWVYGQYVEAI	-0.0237
HMTAKRELILRVFMDSNGKLLSIDDVFMEMRKKRSHRTSKMTVKRAIDLLVDLGLLKEVLFDDDNIKYEYV	-0.0948
HMSGAERAAALLVALGPEVASEIMKFLDDESIQKLASEIAKIEVLSPQEKEDLIGQFLLELKKT	-0.214
HMTATWLTYYRIKAGLTQKRLAELAGLNIRQVQKIENGETLAGNTTAKNLLALADALGIDPHKL	-2.05

Sequence	soluble fraction (log2)
HMDESIPVITYKDSVYANPKAFADAHKLPYKSLHNALSKARKEGKVRFMYKQYNFHLDNNGYIVAVS	0.166
HMNIGSKLRYLIEEANITQRQLADALHISPSALNGYINQGKEPDYATLVRIADYFHTSTDYLLGHSNIR	-0.00171
HMEAFELTPREKQVLQLLVQGKAYKIIAADLDITYDTVRAHIKKIYEKLHVGSMTEAVAKAIQHKL	-0.882
HMGIMSEITHRVLRLLGLLESRSTWTGSDLAERLGVTQRTIRRDVIRLRELGYQVDSVQGLDGGYRMS	-2.48
HMNNIINEAQIKQWVEEFYLSVSPRPTRATMIALVHKKIKEETKDGEEGQTVSETLINNFYTALEKEHKRK	-0.0384
HMHQGTIEVGSIVHIEGQKALGTILSLTQREAIVGLGALKTTIPLKRLHLATEAEARRHKKSVTPQEAV	0.0611
HMKLRSIQEQVQYLEKVDNQKAMQIILNMNDKASAVQILRNMKKEKAAAILAQMDPLQAAQILEDLA	0.0608
HMTRLSSREAQVISLVRDGMTNQQIAERLELSPLTIKNHVQNILRKLDVSNRAQAVAKAVKARLI	-0.3
HMKEKIIKEPYDLFTTDKIGQALEVQALLARQGIKVQRRVDGTKSTLFLENYTQSEKDQALLAVVRSGIV	0.161
HMADVIKLVNTSVLNVRSGAGINYSKIGSLTQGTKVNIISESNGWSKINYNGKIGYISSQYVSEVS	-0.206
HMSKLIDQELINFFKNQIESKSFRYGVSIEDSYEEIKSNQIKFYGEQEDKLKAIDNAFIELKRERAGIR	-0.00405
HMAAVSSHAVKQRIRSLIQAEDPASPLSDEALRLALSALGVEVSRRAVAKYRTSMDIPASSQRKK	-0.252
HMSPPPRPSHPEAAGLRHLAFEVDNIDDAVRHLDRLGVPHEPVRTDEYTGRRFLFFTDPDRLPLELYEK	-0.0818
HMNETSRTRALNILGLKATATQEDIKKAYRSLAKEYHPDKLVGVSEGVKKISEEKFREINEAYEYLI	0.384
HMQRGRTFSIVLNWKGRLLSTQMFFPQFTRPTKEQVTFEINKVYPGAMVYYYNPIEKDPSQPLV	-1.07
HMKMNRELNQRQIKMLDYLSVNPKTTRKQYTKMMGISFMTSYRDIQELIDKAYIISKGQGRGTYYILAN	-0.569
HMQLSASQQQILNHAAVNTDGKLVWFPETLKGGARKKVLDSLFSRALITTDGTHWFVAAEGYEALGIP	-0.877
HMDRWTPLIVAVLIEGSHRFGELRSAIGGITPKVLTETLRSMERDGLVTRDQVPGVPPRVDYALTPLG	-0.334
HMDDSPTARALRTLDLIHNRPGITAAELADRLGVTERAVRRYVLTLRDAGVPVLGTPGRYGGYQVGK	-0.426
HMTTRLLTPRQRQVFDIAIREGFYDSPRRISLTELADLLGVAKSTLSVQLQRVESTIVHTFSEEIRRRS	-2.57
HMKTELAYDFHSRIRDARIREGLSQVDLAKRMNEKIAVIQKAENGIRPTDSLIAKFSKALSVELYVE	-1.26
HMDEEEKGEVEVPNLIGLTRKEAKKTLEEEGLLIETKESLKTNLDDEYEKIKSQLPKAGIKIKQGSTVYVD	0.0917
HMLNNVDIHKLSEDLLLYKIKIDIKLKNIEDAISTIDYFSNKFPNSDLMPYVIYEKKLIDNI	-2.5
HMNTIIIDILPKGLSIAGNQTEPKSLIQQLLMARRADPAQPILLRPAIAVPVQNVVELIDRLTAAGI	-0.221
HMTGTVKVNSLNVYKSASLDSEVKDTLVLNTKVTIAENGQVTDGIYVWGRLQSGEGYVQMNNLTL	-0.687

Source: the domain aggregation screens of Martell et al. (2025)
